# T1: influenza A minimal peptide VPNGTLVKTITNDQI (spotted for dot blot) (Influenza A virus (H3 hemagglutinin …))
# T1 chain: VPNGTLVKTITNDQI
# T2: EBV minimal peptide PPSTSSKLRPRWTFT (spotted for dot blot) (Human herpesvirus 4 (Epstein-Barr …))
# T2 construct: also called EBV gp350 minimal peptide; 72153; source: "recombinant peptide" spotted on nitrocellulose
# T2 chain: PPSTSSKLRPRWTFT
# What was measured:
# [1] = target: T1, influenza A minimal peptide …
# [2] = target: T2, EBV minimal peptide PPSTSSKLRPRWTFT …; experiment: far-Western, overlay or dot blot; details: one partner purified
# [3] = target: T3, influenza A H3 hemagglutinin ectodomain trimer, A/Aichi/02/1968 (Influenza A virus A/Aichi/2/1968 (H3N2, …, UniProt P03437)); experiment: ELISA; details: both partners purified
# T3 construct: source: Expi293, transient transfection, purified (Ni-NTA, SEC)
binder,measurement,setting,value
"clonotype473 (10x_4) (antibody, V domains shown) VH: EVQLVQSGAEVKKPGESLRISCKGSGYTFSTHWIGWVRHMPGKGLEWVGVIYPDDSDTRLSPSFQGQVTISADKSTTTAFLWWSSLKASDTATYYCARGVQSCIRNTCSFYGWFDRWGQGTRVTVSS VL: DIVMTQSPDSLAVSLGERATIYCKSSHSLLYSSNNYNYLAWYQQKPGQPPKLLIYWASTRESGVPDRFSGSGSGTDFTLTISSLQAADVAVYYCQQYFYSPYTFGQGTKVEIR",binding result,[1],binds
"EBV_c57 (antibody, V domains shown, recombinant human IgG) VH: QVQLVQSGAEVKKPGASVKVSCKASGYTFTSYDINWVRQAPGQGLEWLGWMNPNNENTGYAQKFQGRIIMTRNTSIDTVYMELSSLRSEDTAVYYCEAIAAVSATEGAFDIWGQGTMVTVSS VL: not shown",binding result,[2],binds
"flu_c645 (antibody, V domains shown) VH: EVQLVQSGAEVKKPGESLKISCQASGYIFVNYWVGWLRQAPGKGLEWIGIIFPGDSDTTYSPSFQGQVTISAAKSINTVYLQWNSLKASDTAMYYCARAPVPGMSGWFDPWGQGTLVTVSS VL: DIVMTQSPDSLAVSLGGGATIKCKSSHSLLYSSNSKNYLSWYQQKPGQPPKLLFYWASTRESGVPDRFSGSGSGTDFTLTIDSLQAEDLAVYFCQQYFYTPYTFGQGTKLEIN",binding result,[1],binds
"clonotype2760 (Quake) (antibody, V domains shown) VH: EVQLVQSEIEVRKPGESLKISCKGSGYNFATHWIGWVRQMPGKGLEWMGTIYPLDSDTRYSPYFQGQVTISADKSINTAYLQWNSLKASDTAMYYCARVPEGSVVAGEVHFYYYMDVWGKGTAVTVSS VL: DIVMTQSPDSLAVSLGERATINCKSSQSLLYSSNNRNYLAWYQHKPGQPPKLLMYWASTRESGVPDRFSGGGSETDFTLTISSLQAEDVAMYYCQQYYFTPYTFGQGTKLEIK",binding result,[1],binds
"EBV_c40 with light chain D51K (antibody, V domains shown, source: Expi293 or ExpiCHO, recombinant; filtered culture supernatant) VH: QVQMVQSGAEVKRPGDSVRVSCKASGYIFTNYHLHWVRQAPGQGLEWMGIVTPNGSRTNYAQKFKGRVIMSSEASTNTLYMDLSSLKSEDTAVYFCARARDLYGDSDFDYWGQGTPVMVSS VL: SYELSQPPSVSVSPGQTASVSCSGDSLGDKYVSWYQQRPGQSPVVVIYQKRKRPSGIPERFSGSNSGKAATLTISGAQAVDEATYFCQAWESSNVVFGGGTTLTVL",binding result,[2],binds
"clonotype3 (10x_4) (antibody, V domains shown) VH: EVQLVQSGAEVKKPGESLKISCKVSGYSFTTYWIAWVRQMPGKGLEWMGIIYPGDSDTRYSPSFQGQVTISADKSVTTAYLQWGSVKASDTAMYYCARPPHFIDAGGRQTPGYFDLWGQGTLVTVSS VL: DIVMTQSPDSLAVSLGERATINCKSSQTVLFRSNNKNYLAWYQQKPGQPPKLLIYWASTRQSGVPDRFSGSGSGTDFTLTISSLQAEDVALYFCQQYHDSPYTFGQGTKVEIK",binding result,[1],binds
"EBV_c124 with light chain D51K (antibody, V domains shown, source: Expi293 or ExpiCHO, recombinant; filtered culture supernatant) VH: QVQLVQSGAEVRKPGASVKVSCKASGYTFNTYFIQWVRQAPGQGLEWMGVINSSGSGTRYAPKFRGRVILTRDTSTSTAFMELSSLTSEDTAVYYCARAAEGDYGDSALDYWGQGTLVSVSS VL: SYELTQPHSVSVSPGQTASIACSGEKLDKKYTCWYQQRPGQSPVLVIYQKRKRPSGIPERFSGSNSGNTATLTISGTQAIDEADYYCQVWDSNTVVFGGGTKLTVL",binding result,[2],binds
"EBV_c98 (antibody, V domains shown, recombinant human IgG) VH: QVQLVESGGGVVQPGRSLRLSCAASGITLSSYGMHWVRQAPGKGLEWVAVISYDGSKKDYGDSVKGRFTISRDNFKNTLYLQMSSLRAEDTAVYYCAKDTIFDGMDVWGQGTTVTVSS VL: DVVMTQSPLSLPGTLGQPASISCRSSQSLVYSDGNTYLNWFQQRPGQSPRRLIYQVSNRDSGVPDRFSGSGSGTDFTLTISKVEAEDVGVYYCMQSTHWPLTFGGGTKVEIK",binding result,[2],binds
"clonotype4582 (Quake) (antibody, V domains shown) VH: EVQLVQSGAEVKKPGESLKISCKASGYTFTNYWIAWVRQMPGKGLEWMGIIFPSDSDTRYSPSFQGQVTISADKSVSTAYLQWSSLKASDTAMYYCARGAATILRGVVTSYNWFDSWGQGTLVTVSS VL: DVVMTQSPDSLAASLGERATINCTSSHNILYNSNNNNYLAWYQQKPGQPPKLLIYWASTRESGVPDRFSGSGSGTDFTLTISSLQAEDVAVYSCQQYFSTPYTFGQGTKLEIK",binding result,[1],binds
"flu_c504 (antibody, V domains shown) VH: EVQLVQSGAEVKKPGESLKISCKASGYTFTRYWIAWVRQMPGKGLEWMGIIYPGDSDTRYNPSFQGQVTISADKSINTAYLQWSSLKASDTAIYYCAMCVGSPTCYGWFDPWGQGTLVTVSS VL: DIVMTQSPDSLAVSLGERATINCKSSLNILYSSNKKNYLAWYQQKPGQPPKLLIYWASTRESGVPDRFSGSGSGTDFTLTISSLQAEDVAVYYCQQYHSIPYTFGQGSKLEIK",binding result,[1],binds
"flu_c357 (antibody, V domains shown, recombinant human IgG) VH: EVQLVQSGAEVKKPGESLKISCKTSGFKFTSHWIAWVRQMPGKGLEWMGIIYPGDSDTRYNPSFEGQVTVSADKSINTAYLQWSSLKASDTAMYYCARLPHRESGNVSTTWGWFDPWGQGTLVTISS VL: DIVLTQSPDSLAVSLGERATINCKSSHNVLYISNSKNYLAWYQQKPGQPPKLLIYWASTRESGVPDRFSGSGSGTDFTLTISSLQPEDVAVYYCQQYFSTPYTFGQGTRLEIK",binding result,[3],binds
"flu_c326 (antibody, V domains shown, recombinant human IgG) VH: EVQLVQSGAEVKKPGESLKISCRTSGFTFTRHWIAWVRQMPGKGLEWMGIIYPGDSDVTYNPSFQGQVTISADKSITTAYLQWSSLQASDTAIYFCAKPYNYCNTTTCYTRGYFDFWGRGTLVTVSS VL: DIVMTQSPDSLAVSLGERATINCKSSQSLLYRSDNKNYLAWYQQNPGQPPKLLIYWASIRESGVSDRFSGSGSGTDFTLTINSLQAEDVAVYYCQQYYFTPYTFGQGTKLEIK",binding result,[3],binds
"clonotype286 (10x_4) (antibody, V domains shown) VH: EVQLVQSGPEVKEPGESLKISCKASGYNFAKYWIAWVRQMPGKGLEWMGIVYPGDSDTRYSPSFQGQVTISADKSLTTAYLQWSSLKASDTAIYYCARGVQDCDSRNCYAYNWFDPWGQGTLVTVSS VL: DIVMTQSPESLAVSLGERATINCKSSHSVFFSSNNKNYLSWYQQKPGQPPKLLIYWASTRQSGVPDRFSGGGSGTDFTLTISSLQAEDVAVYYCQQYYYSPYTFGQGTKLEIK",binding result,[1],binds
